# Measured values taken from paper PMC9864931 (Vaccines, 2022).
# Target: E. coli-produced Wuhan-Hu1 RBD (receptor binding domain of the SARS-CoV-2 spike protein, a.a. 319-542) (SARS-CoV-2 (Wuhan-Hu1), UniProt P0DTC2)
# Experiment: ELISA
# Conditions: both partners purified
binder,measurement,value
"mAb WRAIR-2057 (antibody, V domains shown) VH: EVQLVQSGAEVKKPGESLKISCKGSGYSFISYWIAWVRQMPGKGLEWMGIIYPGDSDTTYSPSFQGQVTISADKSISTAYLQWSSLKASDTAIYYCARLLYYSDSSPLDSWGQGTLVTVSS VL: DIQMTQSPSSLSASVGDRVTITCRASQSISTYLNWYQQKPGKAPNLLIYAASSLQSGVPSRFSGSGSGTDFTLTISSLQPEDFATYYCQQSHSTPRTFGPGTKVDIK",binding result,binds
